Measured values reported in US20230126796.
Read-outs that look alike come from different tables or passages of the source.

T1: PAR4-B synthetic peptide
T1 chain: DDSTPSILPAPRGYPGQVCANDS

T2: PAR4-C synthetic peptide
T2 chain: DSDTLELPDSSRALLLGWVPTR


Experiments:
PAR4-B synthetic peptide [1] = tested on: PAR4-B synthetic peptide
PAR4-C synthetic peptide [2] = tested on: PAR4-C synthetic peptide
PAR4-B synthetic peptide [3] = molecular target: T1, PAR4-B synthetic peptide
PAR4-C synthetic peptide [4] = molecular target: T2, PAR4-C synthetic peptide

Row | Molecule | proteolysis of the peptide, LC-MS/MS (PAR4-B synthetic peptide [1]) | proteolysis of the peptide, LC-MS/MS (PAR4-C synthetic peptide [2]) | proteolysis of the peptide, LC-MS/MS (PAR4-B synthetic peptide [3]) | proteolysis of the peptide, LC-MS/MS (PAR4-C synthetic peptide [4])
1 | alpha-thrombin | PAR4-B was cleaved by thrombin between amino acids Arg47 and Gly48 | thrombin failed to cleave PAR4-C |  | 
2 | cathepsin G (protein) IIGGRESRPHSRPYMAYLQIQSPAGQSRCGGFLVREDFVLTAAHCWGSNINVTLGAHNIQRRENTQQHITARRAIRHPQYNQRTIQNDIMLLQLSRRVRRNRNVNPVALPRAQEGLRPGTLCTVAGWGRVSMRRGTDTLREVQLRVQRDRQCLRIFGSYDPRRQICVGDRRERKAAFKGDSGGPLLCNNVAHGIVSYGKSSGVPPEVFTRVSSFLPWIRTTMRS |  |  | little cleavage was observed with CatG | CatG cleavage generated several fragments, including DSDTLELPSS
